Results: doi:10.1101/2023.12.03.569830 (bioRxiv, 2023)

Target: T1, surface-exposed domain of TraN (TraN^surf), N-terminal hexa-histidine tag (Salmonella enterica serovar Typhimurium …)
T1 chain: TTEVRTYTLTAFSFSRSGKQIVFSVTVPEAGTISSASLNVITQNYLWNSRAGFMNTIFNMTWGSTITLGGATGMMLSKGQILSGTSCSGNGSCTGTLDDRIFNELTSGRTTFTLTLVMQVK
Experiment: ITC

B1: Nb^traN (TraN-specific nanobody), C-terminal hexa-histidine tag (VHH)
VHH: QVQLQESGGGLVQAGGSLRLSCAASGTIFDGVDMGWYRQAPGKEREFVAGITAGSSTYYADSVKGRFTISRDNAKNTVYLQMNSLKPEDTAVYYCAAYPLDEIGSHDPHSYWGQGTQVTVSS
  Kd: 4.45 µM
